Assays:
[1] = target: fibronectin (human (endogenous in dHL-60)) (UniProt P02751)
[2] = target: fibronectin (human (endogenous in dHL-60)) (UniProt P02751); remark: listed apart in the source

- adhesion of K562 cells to NETs coated plates (NETs from dHL-60 stimulated in serum free conditions), percentage of adherent cells [1]: 62%
- adhesion of K562 cells to NETs coated plates (serum free NETs) with anti-integrin blocking Ab, percentage of adherent cells [1]: 10%
- adhesion of K562 cells to NETs coated plates (NETs from dHL-60 stimulated with 10% FBS), percentage of adherent cells [2]: 59%
- adhesion of K562 cells to NETs coated plates with anti-α5β1 blocking antibody (P1D6), percentage of adherent cells [2]: 24%
Substance: integrin α5β1 (from UniProt P08648 42-1049; P05556 21-798) (receptor)
